According to patent US5262522, “Receptor for oncostatin M and leukemia inhibitory factor” (Immunex Corporation, dated 1993):
Blank lines part the entries; values can stand above or below the binder they belong to.

B1: Receptor comprising gp130 (B10G) and LIF-R (pHLIFR-65) co-expressed on COS-7 cells (receptor)
chain 1: ELLDPCGYISPESPVVQLHSNFTAVCVLKEKCMDYFHVNANYIVWKTNHFTIPKEQYTIINRTASSVTFTDIASLNIQLTCNILTFGQLEQNVYGITIISGLPPEKPKNLSCIVNEGKKMRCEWDGGRETHLETNFTLKSEWATHKFADCKAKRDTPTSCTVDYSTVYFVNIEVWVEAENALGKVTSDHINFDPVYKVKPNPPHNLSVINSEELSSILKLTWTNPSIKSVIILKYNIQYRTKDASTWSQIPPEDTASTRSSFTVQDLKPFTEYVFRIRCMKEDGKGYWSDWSEEASGITYEDRPSKAPSFWYKIDPSHTQGYRTVQLVWKTLPPFEANGKILDYEVTLTRWKSHLQNYTVNATKLTVNLTNDRYLATLTVRNLVGKSDAAVLTIPACDFQATHPVMDLKAFPKDNMLWVEWTTPRESVKKYILEWCVLSDKAPCITDWQQEDGTVHRTYLRGNLAESKCYLITVTPVYADGPGSPESIKAYLKQAPPSKGPTVRTKKVGKNEAVLEWDQLPVDVQNGFIRNYTIFYRTIIGNETAVNVDSSHTEYTLSSLTSDTLYMVRMAAYTDEGGKDGPEFTFTTPKFAQGEIEAIVVPVCLAFLLTTLLGVLFCFNKRDLIKKHIWPNVPDPSKSHIAQWSPHTPPRHNFNSKDQMYSDGNFTDVSVVEIEANDKKPFPEDL
chain 2: QKKGAPHDLKCVTNNLQVWNCSWKAPSGTGRGTDYEVCIENRSRSCYQLEKTSIKIPALSHGDYEITINSLHDFGSSTSKFTLNEQNVSLIPDTPEILNLSADFSTSTLYLKWNDRGSVFPHRSNVIWEIKVLRKESMELVKLVTHNTTLNGKDTLHHWSWASDMPLECAIHFVEIRCYIDNLHFSGLEEWSDWSPVKNISWIPDSQTKVFPQDKVILVGSDITFCCVSQEKVLSALIGHTNCPLIHLDGENVAIKIRNISVSASSGTNVVFTTEDNIFGTVIFAGYPPDTPQQLNCETHDLKEIICSWNPGRVTALVGPRATSYTLVESFSGKYVRLKRAEAPTNESYQLLFQMLPNQEIYNFTLNAHNPLGRSQSTILVNITEKVYPHTPTSFKVKDINSTAVKLSWHLPGNFAKINFLCEIEIKKSNSVQEQRNVTIKGVENSSYLVALDKLNPYTLYTFRIRCSTETFWKWSKWSNKKQHLTTEASPSKGPDTWREWSSDGKNLIIYWKPLPINEANGKILSYNVSCSSDEETQSLSEIPDPQHKAEIRLDKNDYIISVVAKNSVGSSPPSKIASMEIPNDDLKIEQVVGMGKGILLTWHYDPNMTCDYVIKWCNSSRSEPCLMDWRKVPSNSTETVIESDEFRPGIRYNFFLYGCRNQGYQLLRSMIGYIEELAPIVAPNFTVEDTSADSILVKWEDIPVEELRGFLRGYLFYFGKGERDTSKMRVLESGRSDIKVKNITDISQKTLRIADLQGKTSYHLVLRAYTDGGVGPEKSMYVVTKENSVGLIIAILIPVAVAVIVGVVTSILCYRKREWIKETFYPDIPNPENCKALQFQKSVCEGSSALKTLEMNPCTPNNVEVLETRSAFPKIEDTEIISPVAERPEDRSDAEPENHVVVSYCPPIIEEEIPNPAADEAGGTAQVIYIDVQSMYQPQAKPEEKKKKSRSSRSKI
B4: Recombinant human leukemia inhibitory factor (LIF) (ligand)
chain: not shown
modifications: radioiodinated (125I) where used as the labelled ligand; non-radiolabeled where used as competitor

Experiments:
[1] = target: B4; assay: Scatchard analysis of 125I-LIF binding to COS-7 cells co-transfected with B10G and pHLIFR-65 (curve A), phthalate oil separation
Experimental: (§1) Host cells transfected with vector(s) encoding LIF-R or gp130 as described below were assayed for the ability to bind LIF. The host cells were the monkey kidney cell line designated COS-7, described by Glutzman, *Cell* 23:175 (1981). In separate transfections, COS-7 cells were transfected with the following combinations of vectors. The different types of transfected cells (and non-transfected control cells) are designated A–F as shown below, and the curves representing the LIF-binding assay data for each transfected or control cell type are also labeled A–F in FIG. 1.
(§2) Briefly, the COS-7 host cells were released from 10 cm tissue culture plates two days after transfection by incubation in non-enzymatic cell dissociation buffer (Sigma) at 37° C. for 30–60 minutes. Cells were then washed with the above-described binding medium and resuspended in binding medium at 5 ×10^6 cells/ml. 50 μl aliquots of the cells were incubated with serial dilutions of ^125I-LIF at room temperature for one hour with agitation (in the presence or absence of a 200-fold excess of unlabeled LIF) in a total volume of 150 μl. The unlabeled LIF allowed for calculation of the non-specific background binding of LIF. […]

[2] = target: B4; assay: Scatchard analysis of 125I-LIF binding to COS-7 cells transfected with pHLIFR-65 and CAV (curve B, site 2), phthalate oil separation
Experimental: as §1, §2

[3] = target: B4; assay: 125I-LIF binding to COS-7 cells transfected with B10G and CAV (curve F against curve E), phthalate oil separation, Scatchard
Experimental: as §1, §2

[4] = target: B1; assay: Scatchard analysis of 125I-LIF binding to co-transfected COS-7 cells preincubated with oncostatin M as competitor (curve C)
Experimental: as §1, §2

Binder: B1
Kd [1]: 0.9 nM

Kd [2]: 2.4 nM
B2: Single-polypeptide chain human LIF-R encoded by pHLIFR-65, expressed on COS-7 cells (receptor)
chain: QKKGAPHDLKCVTNNLQVWNCSWKAPSGTGRGTDYEVCIENRSRSCYQLEKTSIKIPALSHGDYEITINSLHDFGSSTSKFTLNEQNVSLIPDTPEILNLSADFSTSTLYLKWNDRGSVFPHRSNVIWEIKVLRKESMELVKLVTHNTTLNGKDTLHHWSWASDMPLECAIHFVEIRCYIDNLHFSGLEEWSDWSPVKNISWIPDSQTKVFPQDKVILVGSDITFCCVSQEKVLSALIGHTNCPLIHLDGENVAIKIRNISVSASSGTNVVFTTEDNIFGTVIFAGYPPDTPQQLNCETHDLKEIICSWNPGRVTALVGPRATSYTLVESFSGKYVRLKRAEAPTNESYQLLFQMLPNQEIYNFTLNAHNPLGRSQSTILVNITEKVYPHTPTSFKVKDINSTAVKLSWHLPGNFAKINFLCEIEIKKSNSVQEQRNVTIKGVENSSYLVALDKLNPYTLYTFRIRCSTETFWKWSKWSNKKQHLTTEASPSKGPDTWREWSSDGKNLIIYWKPLPINEANGKILSYNVSCSSDEETQSLSEIPDPQHKAEIRLDKNDYIISVVAKNSVGSSPPSKIASMEIPNDDLKIEQVVGMGKGILLTWHYDPNMTCDYVIKWCNSSRSEPCLMDWRKVPSNSTETVIESDEFRPGIRYNFFLYGCRNQGYQLLRSMIGYIEELAPIVAPNFTVEDTSADSILVKWEDIPVEELRGFLRGYLFYFGKGERDTSKMRVLESGRSDIKVKNITDISQKTLRIADLQGKTSYHLVLRAYTDGGVGPEKSMYVVTKENSVGLIIAILIPVAVAVIVGVVTSILCYRKREWIKETFYPDIPNPENCKALQFQKSVCEGSSALKTLEMNPCTPNNVEVLETRSAFPKIEDTEIISPVAERPEDRSDAEPENHVVVSYCPPIIEEEIPNPAADEAGGTAQVIYIDVQSMYQPQAKPEEKKKKSRSSRSKI

binding result [3]: no binding
B3: Human gp130 encoded by plasmid B10G, expressed on COS-7 cells (receptor)
chain: ELLDPCGYISPESPVVQLHSNFTAVCVLKEKCMDYFHVNANYIVWKTNHFTIPKEQYTIINRTASSVTFTDIASLNIQLTCNILTFGQLEQNVYGITIISGLPPEKPKNLSCIVNEGKKMRCEWDGGRETHLETNFTLKSEWATHKFADCKAKRDTPTSCTVDYSTVYFVNIEVWVEAENALGKVTSDHINFDPVYKVKPNPPHNLSVINSEELSSILKLTWTNPSIKSVIILKYNIQYRTKDASTWSQIPPEDTASTRSSFTVQDLKPFTEYVFRIRCMKEDGKGYWSDWSEEASGITYEDRPSKAPSFWYKIDPSHTQGYRTVQLVWKTLPPFEANGKILDYEVTLTRWKSHLQNYTVNATKLTVNLTNDRYLATLTVRNLVGKSDAAVLTIPACDFQATHPVMDLKAFPKDNMLWVEWTTPRESVKKYILEWCVLSDKAPCITDWQQEDGTVHRTYLRGNLAESKCYLITVTPVYADGPGSPESIKAYLKQAPPSKGPTVRTKKVGKNEAVLEWDQLPVDVQNGFIRNYTIFYRTIIGNETAVNVDSSHTEYTLSSLTSDTLYMVRMAAYTDEGGKDGPEFTFTTPKFAQGEIEAIVVPVCLAFLLTTLLGVLFCFNKRDLIKKHIWPNVPDPSKSHIAQWSPHTPPRHNFNSKDQMYSDGNFTDVSVVEIEANDKKPFPEDL

Binder: B4
KD after preincubation of the cells with non-radiolabeled oncostatin M [4]: 4.2 nM
